This note sets out measurements from the Immune Epitope Database (IEDB).

The target of test [1] is HLA-A*02:01. Put plainly: IEDB peptide-MHC binding, cellular MHC/competitive/fluorescence; ≥ and ≤ were set here for values at or beyond the usual limits of such assays.
Test [2] concerns the target HLA-A*02:02. The experiment in a line: IEDB peptide-MHC binding, purified MHC/competitive/radioactivity; ≥ and ≤ were set here for values at or beyond the usual limits of such assays.
The target in test [3] is HLA-A*68:02. The description is as above.
Test [4] has as its target HLA-A*02:03. The test is described as above.
In test [5] the target is HLA-A*02:06. Described as above.
In test [6] the target is HLA-A*68:02. Put plainly: IEDB peptide-MHC binding, cellular MHC/competitive/fluorescence; ≥ and ≤ were set here for values at or beyond the usual limits of such assays. The note with it: source organism: Influenza A virus.
Test [7] addresses HLA-A*02:01. Put plainly: IEDB peptide-MHC binding, purified MHC/competitive/radioactivity; ≥ and ≤ were set here for values at or beyond the usual limits of such assays. The conditions noted are these: source organism: Influenza A virus.
Where [8] appears, read: source organism: Vaccinia virus WR.
Setting [9] is: source organism: Mammarenavirus choriomeningitidis.

As to KINEMVDELV, the IC50 in test [1] (setting [8]) is 26400 nM; in test [2] (setting [8]), 587 nM; in test [3] (setting [8]), 4960 nM; in test [4] (setting [8]) it was 492 nM; in test [5] (setting [8]), 3060 nM.

For PASISSVLTI, the IC50 in test [1] (setting [8]) came to 5910 nM; in test [2] (setting [8]), 1360 nM; in test [3] (setting [8]) it was 4510 nM; in test [4] (setting [8]) it was 83 nM; in test [5] (setting [8]), 1550 nM.

In the case of ALMDCIIFES, the IC50 in test [1] (setting [9]) came out at 6230 nM; in test [2] (setting [9]), 2.1 nM; in test [3] (setting [9]) it was 507 nM; in test [4] (setting [9]), 16 nM; in test [5] (setting [9]), 13 nM.

Regarding YTFAISYCRA, the IC50 in test [1] (setting [8]) amounted to 10300 nM; in test [2] (setting [8]) it was 325 nM; in test [3] (setting [8]), 4 nM; in test [4] (setting [8]) it was 38 nM; in test [5] (setting [8]), 37 nM.

Turning to AVKFAEESYT, the IC50 was found to be 7830 nM in test [1] (setting [8]); 1760 nM in test [2] (setting [8]); 2290 nM in test [3] (setting [8]); 1470 nM in test [4] (setting [8]); 2260 nM in test [5] (setting [8]).

For the sequence NITTLLNETA, the IC50 in test [1] (setting [8]) turned out to be 5680 nM; in test [2] (setting [8]) it was 218 nM; in test [3] (setting [8]), 1720 nM; in test [4] (setting [8]) it was 106 nM; in test [5] (setting [8]), 1130 nM.

As to LTSVDIETAI, the IC50 turned out to be 6730 nM in test [1] (setting [8]); 509 nM in test [2] (setting [8]); 221 nM in test [3] (setting [8]); 2150 nM in test [4] (setting [8]); 3130 nM in test [5] (setting [8]).

For YAGTIKESL, the half-inhibitory concentration (IC50) came out at 21100 nM in test [1] (setting [8]); 2070 nM in test [2] (setting [8]); 361 nM in test [3] (setting [8]); 2490 nM in test [4] (setting [8]); 3300 nM in test [5] (setting [8]).

For the sequence IAIFNNRNLA, the IC50 in test [1] (setting [8]) worked out at 6300 nM; in test [2] (setting [8]) it was 3360 nM; in test [3] (setting [8]), 1490 nM; in test [4] (setting [8]), 1480 nM; in test [5] (setting [8]) it was 890 nM.

Turning to LITLILSNKL, the IC50 in test [1] (setting [8]) worked out at 7660 nM; in test [2] (setting [8]), 225 nM; in test [3] (setting [8]), 1490 nM; in test [4] (setting [8]), 293 nM; in test [5] (setting [8]), 633 nM.

For ALQLLLEV, the IC50 in test [6] is at least 70000 nM.

In the case of YAGTIKESLL, the IC50 in test [1] (setting [8]) worked out at 21900 nM; in test [2] (setting [8]), 1020 nM; in test [3] (setting [8]), 1910 nM; in test [4] (setting [8]), 4040 nM; in test [5] (setting [8]), 1760 nM.

For TIVSRSSRGV, the IC50 in test [1] (setting [8]) amounted to 11300 nM; in test [2] (setting [8]) it was 4700 nM; in test [3] (setting [8]) it was 1260 nM; in test [4] (setting [8]) it was 11 nM; in test [5] (setting [8]), 3740 nM.

Turning to SIMSMMNIT, the IC50 turned out to be 7140 nM in test [1] (setting [8]); 4970 nM in test [2] (setting [8]); 2370 nM in test [3] (setting [8]); 681 nM in test [4] (setting [8]); 1760 nM in test [5] (setting [8]).

Regarding SIRCVKYLL, the IC50 is 7820 nM in test [1] (setting [8]); 107 nM in test [2] (setting [8]); 244 nM in test [3] (setting [8]); 56 nM in test [4] (setting [8]); 2880 nM in test [5] (setting [8]).

With KTPDYPLIDI, the IC50 in test [1] (setting [8]) amounted to 5550 nM; in test [2] (setting [8]) it was 1120 nM; in test [3] (setting [8]), 1250 nM; in test [4] (setting [8]) it was 249 nM; in test [5] (setting [8]), 725 nM.

In the case of RQDYRRSINV, the IC50 in test [1] (setting [8]) was 10200 nM; in test [2] (setting [8]), 1010 nM; in test [3] (setting [8]), 3970 nM; in test [4] (setting [8]), 375 nM; in test [5] (setting [8]), 2220 nM.

DVNSVQFSIL: the IC50 in test [1] (setting [8]) was 6660 nM; in test [2] (setting [8]), 2270 nM; in test [3] (setting [8]), 2770 nM; in test [4] (setting [8]), 1660 nM; in test [5] (setting [8]) it was 3400 nM.

Consider ELIDVLKTRL, for which the IC50 in test [1] (setting [8]) was 5430 nM; in test [2] (setting [8]), 262 nM; in test [3] (setting [8]), 1420 nM; in test [4] (setting [8]), 118 nM; in test [5] (setting [8]), 1990 nM.

Turning to ILGFVFTL, the values for the IC50 in test [6] and in test [7] were at least 70000 nM and 1.2 nM, respectively.

For the sequence YVIRHVDGKI, the 50% inhibitory concentration (IC50) in test [1] (setting [8]) was 8590 nM; in test [2] (setting [8]), 621 nM; in test [3] (setting [8]) it was 22 nM; in test [4] (setting [8]) it was 114 nM; in test [5] (setting [8]), 522 nM.

In the case of ITRLEVIGLT, the IC50 in test [1] (setting [8]) is 6470 nM; in test [2] (setting [8]) it was 2210 nM; in test [3] (setting [8]), 1180 nM; in test [4] (setting [8]), 219 nM; in test [5] (setting [8]), 967 nM.

Take NASKTINALV: the IC50 in test [1] (setting [8]) worked out at 8460 nM; in test [2] (setting [8]), 765 nM; in test [3] (setting [8]) it was 21 nM; in test [4] (setting [8]), 274 nM; in test [5] (setting [8]), 3220 nM.

ILGFVFTLTV had an IC50 in test [6] of 5020 nM.

Turning to ELAYYNSCML, the IC50 in test [1] (setting [8]) turned out to be 12500 nM; in test [2] (setting [8]) it was 1870 nM; in test [3] (setting [8]), 650 nM; in test [4] (setting [8]), 151 nM; in test [5] (setting [8]) it was 3570 nM.
